Data as given in the supplement of paper PMC12764529.
± gives the half width of the 95% confidence interval.

How the values were obtained:
[1] = folding stability dG unfold from trypsin proteolysis; higher = more stable
In short: (§1)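 Only designs with AlphaFold2 dimer inter-PAE above 15 were retained; each was a mini-protein under 80 residues with no cysteine, in a PA-tagged cDNA display construct. After digestion with trypsin and chymotrypsin and sequencing, K50 was inferred by Bayesian fitting of counts, and unfolding free energy was derived per protease or combined against a sequence-predicted unfolded-state K50 and a shared folded-state K50.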

[2] = folding stability dG unfold from chymotrypsin proteolysis; higher = more stable
In short: as §1

[3] = folding stability dG unfold (combined trypsin and chymotrypsin); higher = more stable
In short: as §1

SKKKKIKKITLTFTTSDGSTITIEIDADQTVTITLPDGSTITITFDKDTGILTITVTNKDGSKQEFKIELSA [r9_99_TrROS_Hall]
folding stability dG unfold [1]: 1.82 ± 0.075 kcal/mol | folding stability dG unfold [2]: 3.08 ± 0.051 kcal/mol | folding stability dG unfold [3]: 2.6 ± 0.11 kcal/mol

SKKPDQPPKTVPIEIWVPLPPGQTPEWREMAEEFAEIFADELQQEGFKNVTVEVEPNKDGWVHIDAEVQVSA [r9_865_TrROS]
folding stability dG unfold [1]: 0.821 ± 0.15 kcal/mol | folding stability dG unfold [2]: -0.283 ± 0.21 kcal/mol | folding stability dG unfold [3]: 0.322 ± 0.26 kcal/mol

SKKPDYVILIEIEVEKNENGEKTIKKKIIIYDKNGKKKLIAEEEITIEVNGIKIKIKIKIFPKGASLEELSA [r9_1113_TrROS_Hall]
folding stability dG unfold [1]: 3.51 ± 0.26 kcal/mol | folding stability dG unfold [2]: 2.23 ± 0.16 kcal/mol | folding stability dG unfold [3]: 2.87 ± 0.2 kcal/mol

SKKPKIKIEIEIVEITEVKYDKKTNKITVKVKVKIKIEVEVNGKKKKIEIEIPKNMTLEEILKKLKELLKSA [r9_656_TrROS_Hall]
folding stability dG unfold [1]: 2.15 ± 0.44 kcal/mol | folding stability dG unfold [2]: 1.99 ± 0.12 kcal/mol | folding stability dG unfold [3]: 2.28 ± 0.58 kcal/mol

SKKTITITIEDKETGLKVEITINEDGTITIKVYDKDGKLVAEVKAKIKLVKDKDGKIRLVIEEIEIKVKPSA [r9_434_TrROS_Hall]
folding stability dG unfold [1]: 3.87 ± 0.46 kcal/mol | folding stability dG unfold [2]: 3.04 ± 0.13 kcal/mol | folding stability dG unfold [3]: 3.61 ± 0.44 kcal/mol

SKKTIYIVNEDGSIIRFDEETGEITIFNKETGKEVKIKVEKKGNELIITIEVNGKKYKIKIPKGDIIPIKSA [r9_239_TrROS_Hall]
folding stability dG unfold [1]: 2.32 ± 0.062 kcal/mol | folding stability dG unfold [2]: 4.16 ± 0.07 kcal/mol | folding stability dG unfold [3]: 3.68 ± 0.24 kcal/mol

SKKVKIVIKIKVEVTNKDGKKKTFEFTLVIELSEEEIEKLKKKIEDLLNELKKKYPNIKKVEITEIKILPSA [r9_436_TrROS_Hall]
folding stability dG unfold [1]: 3.59 ± 0.26 kcal/mol | folding stability dG unfold [2]: 4.4 ± 0.32 kcal/mol | folding stability dG unfold [3]: 4.31 ± 0.62 kcal/mol

SKKVTLPIYFPETGEVVTIDLDELAKALGVDPDKLTLTVVSSGKGRVYRIEVFKDGIRIEEIGDVPPELLSA [r9_819_TrMRF]
folding stability dG unfold [1]: 2.2 ± 0.03 kcal/mol | folding stability dG unfold [2]: 2.848 ± 0.017 kcal/mol | folding stability dG unfold [3]: 2.63 ± 0.05 kcal/mol

SKMYLVKIKIEVYKDGKLVKEEEIEIEVSEEEAKKLAEKLKEELPGYKVKIEIEVREIEPEDEELLKALESA [r9_782_TrROS_Hall]
folding stability dG unfold [1]: 2.69 ± 0.15 kcal/mol | folding stability dG unfold [2]: 4.12 ± 0.054 kcal/mol | folding stability dG unfold [3]: 3.61 ± 0.12 kcal/mol

SKPGKTIMIMITMDNIKEFLEELPLEPNMEVEIMFMNPNGKMRTLTIRNGEIDSIEPFPNFPDYWMIMIKSA [r9_849_TrROS]
folding stability dG unfold [1]: 2.69 ± 0.071 kcal/mol | folding stability dG unfold [2]: 2.92 ± 0.07 kcal/mol | folding stability dG unfold [3]: 2.78 ± 0.24 kcal/mol

SKPVLVKVKIVTKNKNGKKIEKELVIEMSEEDLEKLLEELLNDPNLKDVEKIEIEVVDAETGEVYTFTFPSA [r9_97_TrROS_Hall]
folding stability dG unfold [1]: 2.01 ± 0.19 kcal/mol | folding stability dG unfold [2]: 3.15 ± 0.062 kcal/mol | folding stability dG unfold [3]: 2.89 ± 0.14 kcal/mol

SKTIVIELENIEDMTKEELKNLIKELAEKGETVKVTILNKDGKEVKTIEIKPGEIVPFPKGSKVLIKIEKSA [r9_264_TrROS_Hall]
folding stability dG unfold [1]: 1.42 ± 0.062 kcal/mol | folding stability dG unfold [2]: 1.49 ± 0.036 kcal/mol | folding stability dG unfold [3]: 1.37 ± 0.15 kcal/mol

SKTYLVKVTIEYGGKTIEIEVEVETLEEALAAVRAALPPEERAQLPPDAKVTVEVYELPEVDEETGELLESA [r9_111_TrROS_Hall]
folding stability dG unfold [1]: 2.83 ± 0.07 kcal/mol | folding stability dG unfold [2]: 4.2 ± 0.048 kcal/mol | folding stability dG unfold [3]: 3.84 ± 0.059 kcal/mol

SKTYTAEEIKKLFPNIKKVEVKDGKVRLTVENENGEKFEIEITFEAPKPEPEVEEEVEKKKEEELSEEDLSA [r9_427_TrROS_Hall]
folding stability dG unfold [1]: 1.28 ± 0.061 kcal/mol | folding stability dG unfold [2]: 2.62 ± 0.14 kcal/mol | folding stability dG unfold [3]: 1.65 ± 0.31 kcal/mol

SKWTIDIDITYYPEYGVITVTIRYPNSWEQARFDVRSFIHEAGMPIKLEDIEIEQVEGWYEITYTIRIPPSA [r9_164_TrROS]
folding stability dG unfold [1]: 3.49 ± 0.19 kcal/mol | folding stability dG unfold [2]: 3.88 ± 0.13 kcal/mol | folding stability dG unfold [3]: 3.78 ± 0.39 kcal/mol

SLDPGEPVYRIKVKIEMWNPNGKPIAEFTIPIRTLEEAKEAIKEMAREIAEKMGHPDMPIRIKDIEIEPYSA [r9_376_TrROS]
folding stability dG unfold [1]: 2.29 ± 0.033 kcal/mol | folding stability dG unfold [2]: 2.21 ± 0.045 kcal/mol | folding stability dG unfold [3]: 2.27 ± 0.099 kcal/mol

SLEEKIKEAIENSPPNSEVIVPLPDDRTVKITVTPETVTGDGRRRLRIKVTITIYDPSGTKLGEKVLEIPLS [r1_386_JUSTAS]
folding stability dG unfold [1]: 2.66 ± 0.052 kcal/mol | folding stability dG unfold [2]: 4.12 ± 0.17 kcal/mol | folding stability dG unfold [3]: 3.69 ± 0.16 kcal/mol

SLEVAAELGLSVSSLEELETDPEKGTRLLRLTAPTPGATVEVLVEVTTRKDSKGETVPEVRVLAVRTVAPSA [r9_613_JUSTAS]
folding stability dG unfold [1]: 1.15 ± 0.03 kcal/mol | folding stability dG unfold [2]: 1.33 ± 0.077 kcal/mol | folding stability dG unfold [3]: 1.26 ± 0.07 kcal/mol

SLGPNEDAILEEEAIIDIDPEAFRKAFGFDVPEDTKVLIITRRRVPANGDIETDPEIYIYDPKTKKFYPISA [r9_349_TrMRF]
folding stability dG unfold [1]: 2.05 ± 0.046 kcal/mol | folding stability dG unfold [2]: 2.34 ± 0.067 kcal/mol | folding stability dG unfold [3]: 2.29 ± 0.16 kcal/mol

SLIPIRPLATSPSGDLLIEVPAEEDLVEEIKKYLKEKFPGYTPVEVKPVESPPLYLVLFSHPSGKKVWLGSA [r9_1164_JUSTAS]
folding stability dG unfold [1]: 0.967 ± 0.03 kcal/mol | folding stability dG unfold [2]: 1.35 ± 0.082 kcal/mol | folding stability dG unfold [3]: 1.24 ± 0.07 kcal/mol

SLLELAKQANGPLKINVKSEWVTLPDGTPVEIINVEVSQDPNSDVATVTKTVVDPDKDTSSTSTSTIPLGSS [r1_448_JUSTAS]
folding stability dG unfold [1]: -0.95 ± 0.17 kcal/mol | folding stability dG unfold [2]: 0.316 ± 0.077 kcal/mol | folding stability dG unfold [3]: -0.0266 ± 0.14 kcal/mol
